Biological target: T1, cynomolgus serum albumin (cynomolgus)
T1 construct: also called CSA
Assay: SPR (ProteOn XPR36), Protein #5 captured on hFAP-coated GLC chip, CSA as analyte, 1:1 Langmuir fit
Description: ProteOn setup for Protein #5 binding to serum albumin of different species. First, human FAP (hFAP) was coated on a GLC chip (BioRad) to a level of 700 RU before 50 nM Protein #5 was immobilized as analyle for 120 s (dissociation of 0 s) at constant flow of 100 μl/min to a level of 120 RU. The binding of the serum albumin to Protein #5 was measured by injecting human serum albumin (HSA), cynomolgus serum albumin (CSA) and mouse serum albumin (MSA) in a serial dilution of 100, 33, 11 and 3.7 nM with an association of 120 s and a dissociation of 600 s at a constant flow of 100 μl/min. HSA, CSA and MSA binding was measured serially and the hFAP/Protein #5 complex was regenerated each time with 10 mM glycine pH2 for 18 s at a flow of 100 μl/min. Thus, Protein #5 had to be re-immobilized on hFAP after each regeneration step. […] The kinetic was calculated on the first 300 s of dissociation.

T1 sequence (A2V9Z4 25-608): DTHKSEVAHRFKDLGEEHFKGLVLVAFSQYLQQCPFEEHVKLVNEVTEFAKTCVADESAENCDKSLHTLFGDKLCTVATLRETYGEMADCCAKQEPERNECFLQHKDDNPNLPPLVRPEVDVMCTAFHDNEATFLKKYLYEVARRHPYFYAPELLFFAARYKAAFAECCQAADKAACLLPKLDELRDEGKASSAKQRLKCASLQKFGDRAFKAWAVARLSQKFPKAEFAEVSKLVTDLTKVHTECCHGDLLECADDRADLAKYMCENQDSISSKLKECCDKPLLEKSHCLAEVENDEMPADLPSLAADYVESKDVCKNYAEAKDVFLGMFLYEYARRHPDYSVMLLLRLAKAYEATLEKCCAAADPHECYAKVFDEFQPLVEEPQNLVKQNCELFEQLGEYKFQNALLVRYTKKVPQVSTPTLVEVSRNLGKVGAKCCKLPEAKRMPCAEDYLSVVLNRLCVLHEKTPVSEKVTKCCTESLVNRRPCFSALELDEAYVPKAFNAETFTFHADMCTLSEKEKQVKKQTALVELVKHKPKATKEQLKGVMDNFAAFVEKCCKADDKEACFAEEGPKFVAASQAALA

B1: DARPin Protein #5 (designed binder)
chain: GSDLGKKLLEAARAGQDDEVRELLKAGADVNAKDYFSHTPLHLAARNGHLKIVEVLLKAGADVNAKDFAGKTPLHLAAADGHLEIVEVLLKAGADVNAQDIFGKTPADIAADAGHEDIAEVLQKAAGSPTPTPTTPTPTPTTPTPTPTGSDLGKKLLEAARAGQDDEVRILLAAGADVNAKDVLGWTPLHLAAFEGHLEIVEVLLKAGADVNAKDKKGWTPLQLAARTGHLEIVEVLLKAGADVNAKDHIGATPLHLAAWQGHPEIVEVLLKAGADVNAQDKSGKTPADLAADAGHEDIAEVLQKAAGSPTPTPTTPTPTPTTPTPTPTGSDLGKKLLQAARAGQLDEVRELLKAGADVNAKDTWGFTPLHIAAESGHLEIVEVLLKAGADVNAKDVQGRTPLHIAAHSGHLEIVEVLLKAGADVNAKDFRGWTPLHLAAWSGHLEIVEILLKAGADVNAQDKSGKTPADLAARAGHQDIAEVLQKAAGSPTPTPTTPTPTPTTPTPTPTGSDLGKKLLQAARAGQLDEVRELLKAGADVNAKDTWGFTPLHIAAESGHLEIVEVLLKAGADVNAKDVQGRTPLHIAAHSGHLEIVEVLLKAGADVNAKDFRGWTPLHLAAWSGHLEIVEILLKAGADVNAQDKSGKTPADLAARAGHQDIAEVLQKAA
notes: No tag is stated for this protein; also called SMA136; Molecule No. 1
Kd: 409 nM | koff: 0.217 s⁻¹ | kon: 532000 M⁻¹ s⁻¹

Reference: patent US20240279290A1 (Molecular Partners, published 2024)
